US6905817B1, “Ret-independent signaling pathway for GDNF” (Licestia Ltd., priority 1998, dated 2005)
“Also recorded” adds a separate entry of the source.

Experiments:
Ret^−/− DRG neurons = test: GDNF-evoked [Ca^2+]i changes, confocal microscopy, Ret^−/− DRG neurons; type: cell-based, mouse; conditions: for GDNF-evoked [Ca^2+]i elevation in heparin injected neurons: 6kD heparin injected, versus solvent/saline injected control neurons
Protocol: (§1) DRG from embryonic day 18 (E18) mice were treated with trypsin (Worthington), non-neuronal cells removed by preplating, and about 95% pure neurons cultured on poly-ornithine-laminin-coated glass coverslips in Ham's F14 medium (Imperial Laboratories) with serum substitute containing NGF, BDNF and NT-3 (all from PeproTech, 2 ng/ml if each) for at least 1 day before measurement. Neurotrophins were extensively washed out before GDNF application. GDNF was from PeproTech and donated by Cephalon, Inc. Ret-deficient mice (Schuchardt et al., 1994) were identified from heterozygote matings by the absence of kidneys and PCR-based genotyping. GFRα2-deficient mice were obtained from homozygote matings (Rossi et al., 1999).
(§2) [Ca^2+]i was measured using a Bio-Rad MRC-1024 confocal microscope equipped with an argon-krypton laser. The cells were loaded with 10 μM Calcium Green-1AM (Molecular Probes), a membrane permeable Ca^2+ dye, by 30 min incubation in serum free cell-culture media at 37 ° C. and 5 % CO2. After loading, the neurons were kept at room temperature in Dulbecco's PBS solution contained 20 mM HEPES (pH=7.4) for at least 20 min prior to the experiments. All compounds were applied to the bath by a peristaltic pump. 6 kD Heparin (Sigma) and Alexa 568 nm fluorescent dye (Molecular Probes) were loaded into the cells using Molecular Probes' pinocytotic influx loading reagent basically according to the manufacturer instructions. […] Cell injection was performed using Eppendorf microinjection system. The average intensity of fluorescence in the predefined ROI (Region Of Interest) was measured on-line using TimeCourse software from BioRad. The calibration of fluorescence traces was performed in vitro using Fmax and Fmin values obtained with the calcium calibration buffer kit (Molecular Probes). Because the calibration solutions may not reflect the intracellular environment, the experimental data are presented as delta [Ca^2+]i calculated using Kd=190 nM for Calcium Green-1.

[1] = system: wild type mouse DRG neurons; test: GDNF-evoked [Ca^2+]i changes, confocal microscopy with Calcium Green-1AM, wild type DRG neurons; type: cell-based; conditions: for change in [Ca^2+]i: 100 ng/ml, heat-inactivated at 98° C. for 15 min
Protocol: as §1, §2

[2] = target: T1, GFRα1 of the Ret-negative human SHEP neuroblastoma cell line (human) (UniProt P56159); test: anti-GFRα1 immunoprecipitate from the Triton X-100 insoluble fraction of SHEP cells, Western blot with pan-Src antibodies; lane 7 min of 100 ng/ml GDNF
T1 sequence (GPI anchor, looked up): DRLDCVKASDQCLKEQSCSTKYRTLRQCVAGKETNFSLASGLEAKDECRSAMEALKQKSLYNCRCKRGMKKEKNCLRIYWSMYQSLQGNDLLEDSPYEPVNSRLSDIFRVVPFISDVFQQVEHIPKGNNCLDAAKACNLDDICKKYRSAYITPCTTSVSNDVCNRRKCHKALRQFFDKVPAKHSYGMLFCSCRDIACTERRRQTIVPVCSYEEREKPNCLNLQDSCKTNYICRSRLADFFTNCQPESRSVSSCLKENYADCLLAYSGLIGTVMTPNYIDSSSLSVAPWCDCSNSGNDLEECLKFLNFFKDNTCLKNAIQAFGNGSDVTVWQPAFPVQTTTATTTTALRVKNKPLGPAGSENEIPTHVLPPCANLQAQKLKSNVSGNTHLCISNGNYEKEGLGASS

[3] = target: T1, GFRα1 of the Ret-negative human SHEP neuroblastoma cell line (human); test: anti-GFRα1 immunoprecipitate from the Triton X-100 insoluble fraction of SHEP cells, Western blot with pan-Src antibodies; lane 0 min GDNF (reference lane)
[4] = target: T1, GFRα1 of the Ret-negative human SHEP neuroblastoma cell line (human); test: anti-GFRα1 immunoprecipitate from the Triton X-100 insoluble fraction of SHEP cells, Western blot with pan-Src antibodies; lane 30 sec of 100 ng/ml GDNF
[5] = target: T1, GFRα1 of the Ret-negative human SHEP neuroblastoma cell line (human); test: anti-GFRα1 immunoprecipitate from the Triton X-100 insoluble fraction of SHEP cells, Western blot with pan-Src antibodies; lane 1 min of 100 ng/ml GDNF
GFRα2^−/− DRG neurons = test: GDNF-evoked [Ca^2+]i changes, confocal microscopy, GFRα2^−/− DRG neurons; type: cell-based, mouse; conditions: pre-treatment 10 μM U-73122
Protocol: as §1, §2
Transgenic GFRα2 knock-out mice were produced in our laboratory. […]

[6] = target: T2, GPI-anchored GDNF family receptor α1 (GFRα1) of mouse E18 DRG neurons (mouse) (UniProt P97785); test: cell-based or functional assay
T2 sequence (GPI anchor, looked up): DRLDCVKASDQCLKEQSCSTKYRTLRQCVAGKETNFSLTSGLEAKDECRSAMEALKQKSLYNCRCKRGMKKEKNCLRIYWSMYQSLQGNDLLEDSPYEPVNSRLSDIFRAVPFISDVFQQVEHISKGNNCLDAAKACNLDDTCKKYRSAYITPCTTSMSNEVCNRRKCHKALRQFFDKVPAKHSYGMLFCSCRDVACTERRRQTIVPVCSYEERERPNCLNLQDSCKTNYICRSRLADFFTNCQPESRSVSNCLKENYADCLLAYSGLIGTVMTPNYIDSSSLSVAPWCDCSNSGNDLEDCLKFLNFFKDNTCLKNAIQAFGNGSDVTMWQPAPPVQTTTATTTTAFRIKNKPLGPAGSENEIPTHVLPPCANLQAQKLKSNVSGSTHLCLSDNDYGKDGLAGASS

[7] = target: T1, GFRα1 of the Ret-negative human SHEP neuroblastoma cell line (human); test: cell-based or functional assay
[8] = target: T1, GFRα1 of the Ret-negative human SHEP neuroblastoma cell line (human)

heparin
GDNF-evoked [Ca^2+]i elevation in heparin injected neurons (Ret^−/− DRG neurons): did not evoke an increase in [Ca^2+]i | GDNF-evoked [Ca^2+]i elevation in heparin injected neurons (Ret^−/− DRG neurons; listed as Heparin): did not significantly respond to GDNF application | [Ca^2+]i response of neurons loaded by pinocytosis with heparin (Ret^−/− DRG neurons; heparin with Alexa dye, 100 nM GDNF or 10 μM ATP): did not respond either to 100 nM GDNF or to 10 μM ATP

C/C=C(/C)C(=O)O[C@H]1C(C)=C2[C@H]([C@@H]1OC(=O)CCCCCCC)[C@@](C)(OC(C)=O)C[C@H](OC(=O)CCC)[C@@]1(O)[C@H]2OC(=O)[C@@]1(C)O [thapsigargin]
change in [Ca^2+]i on thapsigargin treatment (Ret^−/− DRG neurons; 5 μM, end of experiments, PI-PLC pre-treated neurons): [Ca^2+]i was transiently increased | change in [Ca^2+]i on application of thapsigargin ([1]; 5 μM, applied at the end of the experiments): profound elevation in [Ca^2+]i | GDNF-evoked [Ca^2+]i elevation after pre-treatment ([1]; pre-treatment 5 μM thapsigargin): abolished the effect of GDNF; also recorded: resulted in the abolishing of the effect of GDNF

phosphatidylinositol-specific phospholipase C [PI-PLC]
GDNF-evoked [Ca^2+]i elevation after pre-treatment (Ret^−/− DRG neurons; pre-treatment PI-PLC 1 U/ml for 1 hr at 37° C.): abolished the effect of GDNF; also recorded: did not affect [Ca^2+]i | GDNF-evoked [Ca^2+]i elevation after pre-treatment ([1]; pre-treatment 1U/ml PI-PLC, GDNF 100 ng/ml): eliminates GDNF-evoked [Ca^2+]i elevation; also recorded: None of the pre-treated neurons responded

GFRα1-coupled Src-type kinase of SHEP cells, co-migrating with p62Yes (from UniProt P07947 2-543) (enzyme)
fold (pan-Src band in the anti-GFRα1 immunoprecipitate, relative to 0 min) [2]: 1.2 fold | fold (pan-Src band in the anti-GFRα1 immunoprecipitate, relative to 0 min) [3]: 1 fold | fold (pan-Src band in the anti-GFRα1 immunoprecipitate, relative to 0 min) [4]: 1.5 fold | fold (pan-Src band in the anti-GFRα1 immunoprecipitate, relative to 0 min) [5]: 1.5 fold

COc1ccc2c(c1)CC[C@@H]1[C@@H]2CC[C@]2(C)[C@@H](NCCCCCCN3C(=O)C=CC3=O)CC[C@@H]12 [U-73122]
GDNF-evoked long-lasting [Ca^2+]i elevation / Ca^2+ release after pre-treatment (Ret^−/− DRG neurons; pre-treatment U-73122 (10 μM)): completely abolished; also recorded: inhibited release of Ca^2+ from the internal stores | GDNF-evoked release of Ca^2+ from internal stores after pre-treatment (GFRα2^−/− DRG neurons): inhibited release of Ca^2+ from the internal stores | GDNF-evoked [Ca^2+]i elevation after pre-treatment ([1]; pre-treatment with U-73122): resulted in abolishing of the effect of GDNF; also recorded: resulted in the abolishing of the effect of GDNF

B1: Glial cell line-derived neurotrophic factor (GDNF) (ligand, UniProt P39905 78-211, looked up, species assumed)
Glial cell line-derived neurotrophic factor: SPDKQMAVLPRRERNRQAAAANPENSRGKGRRGQRGKNRGCVLTAIHLNVTDLGLGYETKEELIFRYCSGSCDAAETTYDKILKNLSRNRRLVSDKVGQACCRPIAFDDDLSFLDDNLVYHILRKHSAKRCGCI
[Ca^2+]i elevation in Ret^-/- DRG neurons (confocal microscopy, Calcium Green-1) (% of the neurons) [6]: 60 to 70 | Src-type kinase activity in co-precipitates with anti-GFRα1 antibodies from Triton X-100 insoluble fractions of SHEP cells [7]: 12 fold | in vitro kinase activity co-precipitated with anti-GFRα1 antibodies from the Triton X-100 insoluble fraction of SHEP cells, fold relative to untreated cells; lane 0 min (reference lane) [8]: 1 fold | in vitro kinase activity co-precipitated with anti-GFRα1 antibodies from the Triton X-100 insoluble fraction of SHEP cells, fold relative to untreated cells; lane 30 sec of 100 ng/ml GDNF [8]: 12 fold | in vitro kinase activity co-precipitated with anti-GFRα1 antibodies from the Triton X-100 insoluble fraction of SHEP cells, fold relative to untreated cells; lane 1 min of 100 ng/ml GDNF [8]: 10 fold | in vitro kinase activity co-precipitated with anti-GFRα1 antibodies from the Triton X-100 insoluble fraction of SHEP cells, fold relative to untreated cells; lane 7 min of 100 ng/ml GDNF [8]: 7 fold

B2: Heat-inactivated GDNF: GDNF heat-inactivated at 98° C. for 15 min, used as specificity control (protein, UniProt P39905 78-211, looked up)
Glial cell line-derived …: SPDKQMAVLPRRERNRQAAAANPENSRGKGRRGQRGKNRGCVLTAIHLNVTDLGLGYETKEELIFRYCSGSCDAAETTYDKILKNLSRNRRLVSDKVGQACCRPIAFDDDLSFLDDNLVYHILRKHSAKRCGCI
modifications: heat-inactivated
change in [Ca^2+]i (Ret^−/− DRG neurons; prolonged application, heat-inactivated, 100 ng/ml): did not respond with [Ca^2+]i elevations | change in [Ca^2+]i [1]: did not evoke any changes of basal [Ca^2+]i | change in [Ca^2+]i ([1]; heat-inactivated): did not evoke changes in [Ca^2+]i
